Test results from article PMC7195491, “DIP/Dpr interactions and the evolutionary design of specificity in protein families” (Nature Communications, 2020).

B1: Dpr10 (domain or fragment)
chain: YQRQSVSNNNHNNAEAKPTHAPPSHYPHGHKWNEPYFDLTMPRNITSLVGKSAYLGCRVKHLGNKTVAWIRHRDLHILTVGTYTYTTDQRFQTSYHRDIDEWTLQIKWAQQRDAGVYECQISTQPVRSYSVNLNIVDLIDAETSDIMQQYYNDDAFYIAENRVYQSSNDEFAGMFGPIQTVAVPTATILGGPDLYVDKGSTINLTCIIKFSPEPPTHIFWYHQDKVLSEETSGGRLKFKTIKSEETKSILLIYDADLLHSGKYSCYPSNTEIASIR
B2: Dpr10 V31K Q29E L10G {V144K Q142E L93G}, extracellular region (domain or fragment)
chain: WNEPYFDLTMPRNITSLVGKSAYLGCRVKHLGNKTVAWIRHRDGHILTVGTYTYTTDQRFQTSYHRDIDEWTLQIKWAQQRDAGVYECQISTEPKRSYSVNLNIVVPTATILGGPDLYVDKGSTINLTCIIKFSPEPPTHIFWYHQDKVLSEETSGGRLKFKTIKSEETKSILLIYDADLLHSGKYSCYPSNTEIASIR
modifications: Limits not printed (ref. 11). Start follows PDB 6NRQ entity 1 (W3 = UniProt 50); end is the end of Ig2 in the entry's features.
B3: Dpr10 V31K Q29E L10G (domain or fragment)
chain: WNEPYFDLTMPRNITSLVGKSAYLGCRVKHLGNKTVAWIRHRDGHILTVGTYTYTTDQRFQTSYHRDIDEWTLQIKWAQQRDAGVYECQISTEPKRSYSVNLNIVVPTATILGGPDLYVDKGSTINLTCIIKFSPEPPTHIFWYHQDKVLSEETSGGRLKFKTIKSEETKSILLIYDADLLHSGKYSCYPSNTEIASIR
modifications: Same molecule as Dm6. Limits not printed (ref. 11). Start follows PDB 6NRQ; end is the end of Ig2 in the entry's features.

Experiments:
Settings in all cases: both partners purified
DIP-α K10Q = target: T1, DIP-α K10Q (Drosophila melanogaster); assay: SPR; Biacore T100, CM4 chip; DIPs and DIP mutants immobilised by amine coupling (760-980 RU), Dprs and Dpr mutants as analytes (three-fold dilution series, up to 81 μM, in some cases up to 27 or 9 μM); 25 °C; 10 mM Tris-HCl pH 7.2, 150 mM NaCl, 1 mM EDTA, 1 mg/mL BSA, 0.01% Tween-20; equilibrium fit, 1:1 model; for KDs > 300 μM a lower limit is listed
T1 construct: DIP-α, Drosophila melanogaster, extracellular region; source: HEK293F, transiently transfected, purified from conditioned media (Ni IMAC, SEC)

DIP-α A11T = target: T2, DIP-α A11T (Drosophila melanogaster); assay: as above
T2 construct: DIP-α, Drosophila melanogaster, extracellular region; the results' sentence speaks of 'Dpr10 positions 10 and 11'; source: HEK293F, transiently transfected, purified from conditioned media (Ni IMAC, SEC)

DIP-α = target: T3, DIP-α (Drosophila melanogaster); assay: as above
T3 construct: DIP-α, Drosophila melanogaster, extracellular region; The PDB entries are cited structures and may hold shorter constructs; also called blue subgroup DIP; source: HEK293F, transiently transfected, purified from conditioned media (Ni IMAC, SEC)

[1] = target: T4, DIP-β (isoformG), extracellular region (Drosophila melanogaster); assay: SPR; Biacore T100, CM4 chip; DIPs and DIP mutants immobilised by amine coupling, Dprs as analytes; 25 °C; 10 mM Tris-HCl pH 7.2, 150 mM NaCl, 1 mM EDTA, 1 mg/mL BSA, 0.01% Tween-20; duplicate responses fit globally to a 1:1 model; Rmax fixed for KDs > 100 μM, lower limit listed for KDs > 300 μM
T4 construct: DIP-β, Drosophila melanogaster, isoform G as printed, extracellular region; source: HEK293F cells, transiently transfected, purified from conditioned media (Ni-IMAC, size-exclusion chromatography)

Row | Binder | fold increase of KD over wild type (DIP-α K10Q) [fold] | fold increase of KD over wild type (DIP-α A11T) [fold] | Kd (DIP-α) [µM] | Kd [1] [µM]
1 | B1 | ~10 | ~10 | 1.5 ± 0.1 | –
2 | B2 | – | – | – | > 500
3 | B3 | – | – | > 500 | –
